# Results from publication PMC11551757, “Phylogenomic instructed target analysis reveals ELAV complex binding to multiple optimally spaced U-rich motifs”.
# T1: ELAV (rELAV) (Drosophila melanogaster?) (UniProt P16914)
# T1 sequence: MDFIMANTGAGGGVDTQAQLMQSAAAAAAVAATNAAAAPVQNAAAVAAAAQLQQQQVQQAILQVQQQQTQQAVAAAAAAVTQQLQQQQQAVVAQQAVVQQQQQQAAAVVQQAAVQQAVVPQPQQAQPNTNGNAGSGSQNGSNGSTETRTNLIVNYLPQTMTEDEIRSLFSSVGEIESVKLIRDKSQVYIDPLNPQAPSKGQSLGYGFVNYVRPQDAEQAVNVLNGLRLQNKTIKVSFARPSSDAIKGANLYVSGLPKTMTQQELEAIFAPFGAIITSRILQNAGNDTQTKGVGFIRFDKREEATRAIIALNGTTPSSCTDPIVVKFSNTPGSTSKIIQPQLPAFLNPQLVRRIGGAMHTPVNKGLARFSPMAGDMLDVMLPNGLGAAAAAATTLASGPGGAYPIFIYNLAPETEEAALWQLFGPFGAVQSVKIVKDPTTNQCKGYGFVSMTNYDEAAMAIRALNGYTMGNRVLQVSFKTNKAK
# T2: ELAV (rELAV) (UniProt P16914 1-483)
# T2 sequence: T1 sequence
# How the values were obtained:
# ELAV (rELAV) [1] = target: T1, ELAV (rELAV); test: EMSA; settings: EMSA: 50 mM Tris-HCl pH 7.5, 60 mM NaCl, 25 ug/ml tRNA, 0.5 mM DTT, 50 ug/ml acetylated BSA, 20 min; 4-6% native gel in 0.5x TBE at 4 C. Footprinting: …
# ELAV (rELAV) [2] = target: T2, ELAV (rELAV); test: EMSA; EMSA: 50 mM Tris-HCl pH 7.5, 60 mM NaCl, 25 ug/ml tRNA, 0.5 mM DTT, 50 ug/ml acetylated BSA, 20 min; 4-6% native gel in 0.5x TBE at 4 C. Footprinting: complexes formed as for EMSA, 15 min at room temperature; settings: protein: recombinant; tags: GST tag, cleaved off with PreScission protease
Molecule,Kd (ELAV (rELAV) [1]),binding signal (ELAV (rELAV) [2])
Ect4 RNA,100 nM,
CG4662 RNA,80 nM,
5PtaseI RNA,24 nM,
Teh2 RNA,430 nM,
GAAGCUAUUAUACAUUUUAUCUUAUAACUCUAUACUUUAUGUU (ssRNA) [M7H A(CU)2 in m3r],,2.5 fold lower affinity than M7H
